In US7566555B2, “Method of expressing proteins comprising non-naturally-occurring amino acids” (Riken, priority 2002, dated 2009):

How the values were obtained:
CHO cells = assay: Effect on growth of CHO cells
Description: Next, 3-iodo-L-tyrosine was added to the medium to a final concentration of 0.3 mM (L-tyrosine was present at twice that concentration (FIG. 5B)).

[1] = test system: amber mutation in ras(Am); assay: Amber suppression of ras(Am) in CHO cells, western blotting with anti-FLAG antibody; format: cell-based, Chinese hamster; conditions: for suppression efficiency (comparison): Ras and EGFR amber mutants, tetracycline 1 μg/mL
Description: Transfection was carried out using 0.5 to 2 μg of DNA for each plasmid per 35 mm plate in accordance with the Lipofect AMINE 2000 (Gibco BRL) method. Opti-MEM 1 (Gibco BRL) was used for the medium. Cell extracts were prepared 24 hours after transfection and applied to SDS-PAGE followed by western blotting using anti-FLAG2 antibody (Sigma) and the ECL+ Immunodetection System (Amersham Pharmacia Biotech). Band intensity was measured using the LAS-1000 plus image analyzer (Fuji Film).
In order to analyze amber suppression, the tyrosine codon at position 32 in a synthetic ras gene truncated from the wild type c-Ha-Ras was mutated to an amber codon. In order to detect expression, a FLAG peptide tag was added to the C-terminals of the ras genes, ras(WT) and its amber mutant ras(Am), and to the C-terminal of E. coli TyrRS.
These ras gene were introduced into CHO cells, and their products were detected by western blotting of cell extracts using anti-FLAG antibody (FIG. 4A).

TyrRS = assay: Aminoacylation reaction of TyrRS variants, inorganic phosphate detected with Biomol Green; format: biochemical, E. coli; design: key: +++: the activity detected with an enzyme concentration of 0.50 μM; ++: the activity detected with an enzyme concentration of 0.25 μM; the activity detected with an enzyme concentration of 0.25 μM, although the activity is lower than that represented by “++”; −: no activity detected with an enzyme concentration of 0.25 μM
Text: More preferably, a mutant TyrRS can be used in which the location corresponding to tyrosine (Y) at position 37 is substituted with valine (V), leucine (L), isoleucine (I) or alanine (A), and the location corresponding to glutamine (Q) at position 195 is substituted with alanine (A), cysteine (C), serine (S) or asparagine (N).

With `N[C@@H](Cc1ccc(O)c(I)c1)C(=O)O` [3-iodo-L-tyrosine, reference compound] the “effect on cell reproduction” value (CHO cells; 0.3 mM in the medium) was “hardly any effect on cell reproduction”.

B1: TetBst2: tet02 sequence 20 bases upstream from the suppressor tRNA gene, SEQ. ID NO. 32 (nucleic acid)
DNA: TCTCCCTATCAGTGATAGAGATCCGCCGACACACGTACACGTCGGAGGGGTAGCGAAGTGGCTAAACGCGGCGGACTCTAAATCCGCTCCCTTTGGGTTCGGCGGTTCGAATCCGTCCCCCTCCAGACAAGTGCGGTTTTTTTCTCCAGCTCCCG
modifications: a sequence of one of the induced expression systems prepared in Example 2 (TetBst2)
In the case of B1, the “suppression efficiency (comparison)” value [1] is reported as “lower than that of TetBst1”.

B2: TetBst0×1: tet02 sequence immediately before the suppressor tRNA gene, SEQ. ID NO. 30, single copy (nucleic acid)
DNA: TCTCCCTATCAGTGATAGAGATCGGAGGGGTAGCGAAGTGGCTAAACGCGGCGGACTCTAAATCCGCTCCCTTTGGGTTCGGCGGTTCGAATCCGTCCCCCTCCAGACAAGTGCGGTTTTTTTCTCCAGCTCCCG
modifications: a sequence of one of the induced expression systems prepared in Example 2 (TetBst0)
notes: ID NO; 30, single copy
B2 was tested, and the “suppression when tetracycline is not added” value ([1]; no tetracycline) was “nearly complete absence of suppression”.

B3: TetBst1: tet02 sequence 10 bases upstream from the suppressor tRNA gene, SEQ. ID NO. 31 (nucleic acid)
DNA: TCTCCCTATCAGTGATAGAGATCCGTACACGTCGGAGGGGTAGCGAAGTGGCTAAACGCGGCGGACTCTAAATCCGCTCCCTTTGGGTTCGGCGGTTCGAATCCGTCCCCCTCCAGACAAGTGCGGTTTTTTTCTCCAGCTCCCG
modifications: a sequence of one of the induced expression systems prepared in Example 1 (TetBst1)
With B3 the “suppression efficiency (comparison)” value [1] was “higher suppression efficiency than TetBst0”.

B4: Wild Type (Y37, Q195): TyrRS (wild type) of E. coli, SEQ. ID NO. 29 (protein, listed as Escherichia coli)
chain: MASSNLIKQLQERGLVAQVTDEEALAERLAQGPIALYCGFDPTADSLHLGHLVPLLCLKRFQQAGHKPVALVGGATGLIGDPSFKAAERKLNTEETVQEWVDKIRKQVAPFLDFDCGENSAIAANNYDWFGNMNVLTFLRDIGKHFSVNQMINKEAVKQRLNREDQGISFTEFSYNLLQGYDFACLNKQYGVVLQIGGSDQWGNITSGIDLTRRLHQNQVFGLTVPLITKADGTKFGKTEGGAVWLDPKKTSPYKFYQFWINTADADVYRFLKFFTFMSIEEINALEEEDKNSGKAPRAQYVLAEQVTRLVHGEEGLQAAKRITECLFSGSLSALSEADFEQLAQDGVPMVEMEKGADLMQALVDSELQPSRGQARKTIASNAITINGEKQSDPEYFFKEEDRLFGRFTLLRRGKKNYCLICWK
For B4, the “effect on growth rate of CHO cells” value (CHO cells; expression from a transiently introduced plasmid) was “hardly affect the growth rate”, the “Activity of TyrRS variants with 3-iodo-L-tyrosine” value (TyrRS; amino acid: 3-iodo-L-tyrosine) was “−” and the “Activity of TyrRS variants with Tyrosine” value (TyrRS; amino acid: Tyrosine) was “+++”.
